In the supplement of paper PMC9112550, “Optimization of the antimicrobial peptide Bac7 by deep mutational scanning” (BMC Biology, 2022):

These sequences were tested on Escherichia coli TOP10 (assay: shrunken log2 fold change of peptide-encoding DNA abundance (4.5 h post-induction vs induction); higher = less antimicrobial activity (less host growth inhibition)). Details: time post-induction: 4.5 h; library: site-saturation at positions 5, 18, 19, 20.
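Note: peptides expressed intracellularly from a pBAD plasmid library in pooled LB shake-flask culture, induced with 0.3% L-arabinose, DNA abundance read by NGS, three biological replicates, DESeq2 with apeglm shrinkage.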

Point of comparison: RRIRKRPPRLPRPRPRPCWRPRP, “shrunken log2 fold change” value 0.183. Against it:
- RRIRLRPPRLPRPRPRPFISPRP — lower, -0.182
- RRIRRRPPRLPRPRPRPGVDPRP — within 0.2 log units, 0.31
- RRIRGRPPRLPRPRPRPKHRPRP — higher, 0.449
- RRIRYRPPRLPRPRPRPWVQPRP — lower, -0.544
- RRIRDRPPRLPRPRPRPREHPRP — lower, -0.118
- RRIRYRPPRLPRPRPRPAEDPRP — lower, -0.176
- RRIRNRPPRLPRPRPRPEQNPRP — lower, -0.21
- RRIRFRPPRLPRPRPRPWGCPRP — lower, -0.225
- RRIRYRPPRLPRPRPRPYGIPRP — lower, -0.064
- RRIRYRPPRLPRPRPRPMDTPRP — lower, -0.216
- RRIRNRPPRLPRPRPRPWFQPRP — lower, -0.109
- RRIRVRPPRLPRPRPRPRILPRP — lower, -0.412
- RRIRRRPPRLPRPRPRPVNSPRP — lower, -0.0287
- RRIRHRPPRLPRPRPRPMWNPRP — lower, -0.0721
- RRIRRRPPRLPRPRPRPGCPPRP — higher, 0.414
- RRIRCRPPRLPRPRPRPEAYPRP — within 0.2 log units, -0.0117
- RRIRHRPPRLPRPRPRPAEKPRP — within 0.2 log units, -0.0153
- RRIRTRPPRLPRPRPRPIYIPRP — lower, -0.949
- RRIRPRPPRLPRPRPRPRHPPRP — within 0.2 log units, 0.357
- RRIRYRPPRLPRPRPRPRAWPRP — lower, -0.214
- RRIRNRPPRLPRPRPRPWPHPRP — lower, -0.0312
- RRIRIRPPRLPRPRPRPHDMPRP — lower, -0.226
- RRIRCRPPRLPRPRPRPPMAPRP — within 0.2 log units, 0.263
- RRIRGRPPRLPRPRPRPWFMPRP — lower, -0.384
- RRIRPRPPRLPRPRPRPSRCPRP — within 0.2 log units, 0.093
- RRIRQRPPRLPRPRPRPESEPRP — within 0.2 log units, 0.219
- RRIRMRPPRLPRPRPRPHAGPRP — within 0.2 log units, 0.222
- RRIRSRPPRLPRPRPRPRQRPRP — within 0.2 log units, 0.293
- RRIRERPPRLPRPRPRPYLRPRP — lower, -0.319
- RRIRCRPPRLPRPRPRPQQWPRP — lower, -0.0268
- RRIRQRPPRLPRPRPRPWGEPRP — lower, -0.0675
- RRIRIRPPRLPRPRPRPKSMPRP — lower, -0.208
- RRIRRRPPRLPRPRPRPMQHPRP — higher, 0.566
- RRIRGRPPRLPRPRPRPSCHPRP — within 0.2 log units, 0.175
- RRIRNRPPRLPRPRPRPPTVPRP — within 0.2 log units, 0.175
- RRIRGRPPRLPRPRPRPTPHPRP — higher, 0.906
- RRIRMRPPRLPRPRPRPPREPRP — higher, 1.19
- RRIRYRPPRLPRPRPRPWPFPRP — lower, -0.218
- RRIRVRPPRLPRPRPRPQKYPRP — lower, -0.783
- RRIRQRPPRLPRPRPRPHFTPRP — lower, -0.217
- RRIRSRPPRLPRPRPRPAPYPRP — within 0.2 log units, 0.265
- RRIRQRPPRLPRPRPRPHGEPRP — within 0.2 log units, 0.215
- RRIRGRPPRLPRPRPRPHALPRP — within 0.2 log units, 0.0818
- RRIRERPPRLPRPRPRPGGIPRP — within 0.2 log units, 0.0836
- RRIRKRPPRLPRPRPRPIRYPRP — lower, -0.118
- RRIRHRPPRLPRPRPRPYPVPRP — within 0.2 log units, -0.00992
- RRIRRRPPRLPRPRPRPLKHPRP — within 0.2 log units, 0.208
- RRIRSRPPRLPRPRPRPSWHPRP — lower, -0.206
- RRIRRRPPRLPRPRPRPLLIPRP — within 0.2 log units, 0.145
- RRIRDRPPRLPRPRPRPWQNPRP — lower, -0.0811
- RRIRSRPPRLPRPRPRPTIYPRP — lower, -0.405
- RRIRCRPPRLPRPRPRPLDHPRP — lower, -0.289
- RRIRYRPPRLPRPRPRPKVLPRP — lower, -0.04
- RRIRHRPPRLPRPRPRPWGIPRP — lower, -0.0176
- RRIRWRPPRLPRPRPRPGSEPRP — higher, 0.385
- RRIRQRPPRLPRPRPRPKLPPRP — within 0.2 log units, 0.146
- RRIRERPPRLPRPRPRPYNPPRP — within 0.2 log units, 0.00932
- RRIRQRPPRLPRPRPRPTGYPRP — within 0.2 log units, 0.0832
- RRIRPRPPRLPRPRPRPPKRPRP — higher, 0.496
- RRIRCRPPRLPRPRPRPMGRPRP — within 0.2 log units, 0.162
- RRIRERPPRLPRPRPRPNPKPRP — lower, -0.0343
- RRIRERPPRLPRPRPRPQHWPRP — lower, -0.046
- RRIRCRPPRLPRPRPRPNNLPRP — lower, -0.765
- RRIRDRPPRLPRPRPRPMFMPRP — within 0.2 log units, 0.169
- RRIRSRPPRLPRPRPRPMTYPRP — within 0.2 log units, 0.132
- RRIRFRPPRLPRPRPRPAQDPRP — within 0.2 log units, 0.381
- RRIRVRPPRLPRPRPRPEVWPRP — higher, 0.405
- RRIRSRPPRLPRPRPRPFKRPRP — within 0.2 log units, -0.013
- RRIRYRPPRLPRPRPRPWREPRP — within 0.2 log units, 0.0494
- RRIRQRPPRLPRPRPRPRYPPRP — lower, -0.0427
- RRIRCRPPRLPRPRPRPNYSPRP — lower, -0.522
- RRIRQRPPRLPRPRPRPKYGPRP — lower, -0.3
- RRIRIRPPRLPRPRPRPYTQPRP — lower, -1.02
- RRIRGRPPRLPRPRPRPTLHPRP — higher, 0.896
- RRIRHRPPRLPRPRPRPINNPRP — lower, -0.7
- RRIRARPPRLPRPRPRPRLQPRP — higher, 0.637
- RRIRMRPPRLPRPRPRPNQVPRP — lower, -0.217
- RRIRVRPPRLPRPRPRPCECPRP — within 0.2 log units, 0.00846
- RRIRFRPPRLPRPRPRPFVDPRP — lower, -0.121
- RRIRHRPPRLPRPRPRPILHPRP — lower, -0.0471
- RRIRNRPPRLPRPRPRPQGDPRP — higher, 4.25
- RRIRERPPRLPRPRPRPNPRPRP — within 0.2 log units, 0.134
- RRIRCRPPRLPRPRPRPYNYPRP — lower, -0.914
- RRIRSRPPRLPRPRPRPYYGPRP — lower, -0.197
- RRIRCRPPRLPRPRPRPHQFPRP — within 0.2 log units, 0.0354
- RRIRARPPRLPRPRPRPHRDPRP — within 0.2 log units, 0.0774
- RRIRIRPPRLPRPRPRPRVLPRP — lower, -0.24
- RRIRKRPPRLPRPRPRPDKPPRP — within 0.2 log units, 0.128
- RRIRQRPPRLPRPRPRPVHQPRP — lower, -0.104
- RRIRSRPPRLPRPRPRPSHMPRP — lower, -0.993
- RRIRYRPPRLPRPRPRPMQDPRP — lower, -0.28
- RRIRWRPPRLPRPRPRPNDNPRP — lower, -0.425
- RRIRWRPPRLPRPRPRPGEVPRP — lower, -0.0252
- RRIRLRPPRLPRPRPRPSMEPRP — lower, -0.371
- RRIRVRPPRLPRPRPRPLKWPRP — lower, -0.235
- RRIRRRPPRLPRPRPRPIFEPRP — within 0.2 log units, 0.0525
- RRIRERPPRLPRPRPRPWVWPRP — within 0.2 log units, 0.0922
- RRIRARPPRLPRPRPRPSSTPRP — lower, -0.0285
- RRIRRRPPRLPRPRPRPGHHPRP — lower, -0.139
- RRIRFRPPRLPRPRPRPYQDPRP — lower, -0.151
- RRIRDRPPRLPRPRPRPCEAPRP — lower, -0.0794
- RRIRTRPPRLPRPRPRPESIPRP — lower, -0.114
- RRIRARPPRLPRPRPRPGLTPRP — higher, 0.686
- RRIRKRPPRLPRPRPRPGEQPRP — lower, -0.0435
- RRIRTRPPRLPRPRPRPCQYPRP — lower, -0.293
- RRIRRRPPRLPRPRPRPEWRPRP — higher, 0.639
- RRIRIRPPRLPRPRPRPPFAPRP — within 0.2 log units, 0.143
- RRIRPRPPRLPRPRPRPVEHPRP — within 0.2 log units, 0.00343
